Experimental findings from publication PMC9730764 are described below.

Assay [1] addresses Bacillus subtilis cysteine desulfurase SufS (B. subtilis) (UniProt O32164).
Assay [2] has as its target Staphylococcus aureus cysteine desulfurase SufS (S. aureus USA300_LAC).

As for “Staphylococcus aureus sulfurtransferase SufU (from UniProt A0ABV4SS75 2-153) (natural protein)”, the stimulation factor of SufS cysteine desulfurase activity by SufU in assay [1] worked out at 15; in assay [2] it was 1.5.
